In US20160251404A1 (Molecular Partners, published 2016):
Substitutions are numbered along the chain they refer to.

B1: DARPin #33 (designed binder)
chain: MRGSHHHHHHGSDLGKKLLEAARAGQDDEVRILMANGADVNAHDYSGFTPLHLAAYYGHLEIVEVLLKHGADVNAFDDWGHTPLHLAARYGHLEIVEVLLKYGADVNAEDTEGYTPLHLAAMDGHLEIVEVLLKNGADVNAQDKFGKTAFDISIDNGNEDLAEILQKLN
B2: DARPin #59 (designed binder)
chain: MRGSHHHHHHGSDLGKKLLEAARAGQDDEVRILMANGADVNADDSLGLTPLHLAAASGHLEIVEVLLKNGADVNAVDQNSFTPLYLAANNGHLEIVEVLLKNGADVNAFDWHGTTPLHLAAMFGHLEIVEVLLKNGADVNAQDKFGKTAFDISIDNGNEDLAEILQKLN
B3: DARPin #51 (designed binder)
chain: MRGSHHHHHHGSDLGKKLLEAARAGQDDEVRILLKAGADVNAKDRYGDTPLHLAADIGHLEIVEVLLKAGADVNAEDYFGNTPLHLAASYGHLEIVEVLLKAGADVNAKDDYGNTPLHLAANTGHLEIVEVLLKAGADVNAQDKSGKTPADLAADAGHEDIAEVLQKLN
B4: DARPin #60 (designed binder)
chain: MRGSHHHHHHGSDLGMKLLEAARAGQDDEVRILMANGADVNAHDTWGLTPLHLAAFHGHQEIVEVLLKHGADVNAQDFYGKTPLHLAALRGHLEIVEVLLKYGADVNAQDQFGKTAFDISIDNGNEDLAEILQKLN
B5: DARPin #42 (designed binder)
chain: MRGSHHHHHHGSDLGKKLLEAARAGQDDEVRILMANGADVNAKYEDGLTPLHLAAFYGHLEIVEVLLKHGADVNATDAWGHTPLHLAAHYGHLEIVEVLLKYGADVNAIDTLGYTPLHLAANFGHLEIVEVLLKNGADVNAQDKFGKTAFDISIDNGNEDLAEILQKLN
B6: DARPin #43 (designed binder)
chain: B5 chain with H89Y, A108T, I109H, T111K, L112E, Y114M, P116A, N122L, F123T
B7: DARPin #41 (designed binder)
chain: B5 chain with K68R, H89Y, Y90L, I109E, L112E, N122M, F123D, V129I, N135H
B8: DARPin #57 (designed binder)
chain: MRGSHHHHHHGSDLGKKLLEAARAGQDDEVRILMANGADVNAHDYLGLTPLHLAASDGHLEIVEVLLKHGADVNAYDYNGLTPLHLAANNGHLEIVEVLLKYGADVNAFDVAGYTPLHLAAYFGHLEIVEVLLKYGADVNAQDKFGKTAFDISIDNGNEDLAEILQKLN
B9: DARPin #37 (designed binder)
chain: MRGSHHHHHHGSDLGKKLLEAARAGQDDEVRILMANGADVNATDLTGFTPLHLAAYYGHLEIVEVLLKYGADVNADDRYGLTPLHLAANTGHLEIVEVLLKNGADVNASDSVGTTLLHLAAYIGHPEIVEVLLKYGADVNAQDKFGKTAFDISIDNGNEDLAEILQKLN
B10: DARPin #48 (designed binder)
chain: MRGSHHHHHHGSDLGKKLLEAARAGQDDEVRILMANGADVNAKDRFGDTPLHLAADIGHLKIVEVLLKHGADVNAEDWFGNTPLHLAASMGHLEIVEVLLKYGADVNAMDDYGNTPLHLAANTGHLEIVEVLLKHGADVNAQDKFGKTAFDISIDNGNEDLAEILQKLN
B11: DARPin #61 (designed binder)
chain: MRGSHHHHHHGSDLGKKLLEAARAGQDDEVRILMANGADVNAEDYLGHTPLHLAASTGHLEIVEVLLKYGADVNAKDRNGLTPLYLAANNGHLEIVEDLLKYGADVNADDDNGTTPLHLAAIFGHLEIVEVLLKYGADVNAQDKFGKTAFDISIDNGNEDLAEILQKLN
B12: DARPin #56 (designed binder)
chain: MRGSHHHHHHGSDLGKKLLEAARAGQDDEVRILMANGADVNANDFLGLTPLHLAASTGHLEIVEVLLKYGADVNAIDAYGHTPLHLAANNGHLEIVEVLLKYGADVNAIDHFGYTPLHLAAMFGHLEIVEVLLKNGADVNAQDKFGKTAFDISIDNGNEDLAEILQKLN
B13: DARPin #58 (designed binder)
chain: MRGSHHHHHHGSDLGKKLLEAARAGQDDEVRILMANGADVNAHDYVGLTPLHLAASIGHLEIVEVLLKYGADVNASDYNGFTPLYLAANNGHLEIVEVLLKNGADVNATDSFGYTPLHLAAHYGHLEIVEVLLKNGADVNAQDKFGKTAFDISIDNGNEDLAEILQKLN
B14: DARPin #38 (designed binder)
chain: MRGSHHHHHHGSDLGKKLLEAARAGQDDEVRILMANGADVNATDANGFTPLHLAAFYGHLEIVEVLLKYGADVNAYDNFGLTPLHLAASYGHLEIVEVLLKNGADVYAQDKFGKTAFDISIDNGNEDLAEILQKLN

Molecular target: T1, recombinant human HGF (hepatocyte growth factor) (human, UniProt P14210 32-728)
Assay: cell-based or functional assay

T1 sequence (P14210 32-728 limits assumed): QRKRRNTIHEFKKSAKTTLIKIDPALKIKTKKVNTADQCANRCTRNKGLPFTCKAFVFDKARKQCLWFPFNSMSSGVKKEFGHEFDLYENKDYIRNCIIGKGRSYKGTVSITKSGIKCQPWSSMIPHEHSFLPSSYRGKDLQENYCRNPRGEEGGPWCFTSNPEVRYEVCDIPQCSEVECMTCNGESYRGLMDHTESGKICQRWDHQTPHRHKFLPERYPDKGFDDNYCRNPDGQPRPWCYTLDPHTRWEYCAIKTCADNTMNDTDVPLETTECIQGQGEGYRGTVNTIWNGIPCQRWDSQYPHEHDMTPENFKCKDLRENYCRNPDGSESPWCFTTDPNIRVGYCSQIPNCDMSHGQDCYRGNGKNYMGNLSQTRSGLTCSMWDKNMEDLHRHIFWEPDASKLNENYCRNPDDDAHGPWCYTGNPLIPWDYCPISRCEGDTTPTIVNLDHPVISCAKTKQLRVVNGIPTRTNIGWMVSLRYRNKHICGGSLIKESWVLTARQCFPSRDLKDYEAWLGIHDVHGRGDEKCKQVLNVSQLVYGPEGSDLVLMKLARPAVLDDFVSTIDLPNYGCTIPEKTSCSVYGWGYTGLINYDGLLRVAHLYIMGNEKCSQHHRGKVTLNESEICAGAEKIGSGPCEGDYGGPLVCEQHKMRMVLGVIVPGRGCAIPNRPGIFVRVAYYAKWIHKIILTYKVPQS

Row | Binder | IC50 of U87 cell proliferation (BrdU) [nM]
1 | B1 | 137
2 | B2 | 3280
3 | B3 | 116
4 | B4 | 78
5 | B5 | 82
6 | B6 | 71
7 | B7 | 113
8 | B8 | 730
9 | B9 | 400

Molecular target: T1, recombinant human HGF (hepatocyte …)
Assay: receptor competition ELISA: DARPin premixed with human HGF, binding of HGF to coated c-Met Fc chimera detected with anti-HGF antibody
Description: The potency of anti-HGF DARPins to inhibit the binding of human HGF to its receptor c-Met was determined in a receptor competition ELISA. c-Met (Fc chimera; RnD systems, USA, 358-MT-100/CF) was pre-coated on a microplate. DARPins and HGF were premixed in PBSTC and incubated at room temperature for 0.5 hours. These preincubation mixtures were then transferred into the with c-Met precoated wells and any HGF that was not blocked by the DARPins was bound by the immobilized receptor. After washing away any unbound substances, an polyclonal antibody specific for HGF (RnD systems, USA, AF-294-NA) was added to the wells. After washing away any unbound substances, an horse radish peroxidase conjugated antibody (Novus Biologicals, USA, NB7357) binding to the polyclonal antibody specific for HGF was added to the wells. Following a wash to remove any unbound antibody-enzyme reagent, a substrate solution (Roche, Switzerland, 11484281001) was added to the wells and color was developing in proportion to the amount of HGF bound. The color development was stopped and the intensity of the color was measured at 405 nm. […] Example titration curves are given for a set of DARPins in FIG. 5. IC₅₀ values were calculated from such titration curves obtained as described above using standard procedures known to the person skilled in the art.

Row | Binder | IC50 [nM]
10 | B3 | 0.62
11 | B10 | 0.91
12 | B4 | 0.95
13 | B6 | 1.36
14 | B8 | 1.71
15 | B9 | 1.33

Molecular target: T1, recombinant human HGF (hepatocyte …)
Assay: SPR (ProteOn), human HGF immobilized on GLC chip, DARPin injected, PBS 0.005% Tween 20
Description: SPR was measured using a ProteOn instrument (BioRad) and measurement was performed according standard procedures known to the person skilled in the art. The running buffer was PBS, pH 7.4, containing 0.005% Tween 20®. Human HGF was covalently immobilized on a GLC chip (BioRad) to a level of about 5000 resonance units (RU). The interaction of DARPin and HGF was then measured by injecting 200 μl running buffer (PBS containing 0.005% Tween®) containing serial dilutions of DARPins of concentration of […] (on-rate measurement), followed by a running buffer flow for 25 minutes at a constant flow rate of 100 μl/min (off-rate measurement). The signals (i.e. resonance unit (RU) values) of the interspots and a reference injection (i.e. injection of running buffer only) were subtracted from the RU traces obtained after injection of DARPin (double-referencing). From the SPR traces obtained from the on-rate and off-rate measurements the on- and off-rate of the corresponding DARPin HGF interaction can be determined. […] Dissociation constants (Kd) were calculated from the estimated on- and off-rates using standard procedures known to the person skilled in the art. […] As an example, Table 1 summarizes the Kd values for some of the selected DARPins.

Row | Binder | Kd [nM]
16 | B1 | 0.148
17 | B2 | 0.528
18 | B11 | 0.16
19 | B3 | 0.051
20 | B10 | 0.016
21 | B12 | 0.736
22 | B4 | 0.026
23 | B13 | 0.578
24 | B5 | 0.084
25 | B6 | 0.025
26 | B8 | 16.6
27 | B9 | 0.011
28 | B14 | 1.6

Molecular target: T1, recombinant human HGF (hepatocyte …)
Assay: cell-based or functional assay
Remark: another data set of the same source

Row | Binder | % inhibition of HGF stimulated c-Met phosphorylation in A549 cells [%] | IC50 of HGF stimulated c-Met phosphorylation in A549 cells [nM]
29 | B1 | 100 | 0.2
30 | B2 | 100 | 0.85
31 | B11 | 82 | 0.39
32 | B3 | 81 | 0.01
33 | B10 | 95 | 0.1
34 | B12 | 72 | 0.53
35 | B4 | 94 | 0.05
36 | B13 | 89 | 1.63
37 | B5 | 98 | 0.32
38 | B6 | 101 | 0.16
39 | B7 | 99 | 0.13
40 | B8 | 100 | 1.72
41 | B9 | 95 | 0.07
42 | B14 | 88 | 2.59

Molecular target: T1, recombinant human HGF (hepatocyte …)
Assay: cell-based or functional assay
Remark: another data set of the same source

Row | Binder | IC50 of U87 cell proliferation (BrdU) [nM]
43 | B6 | 72
